# Test results as given in patent US20230324389.
# B1: MMP2 (protein)
# chain: YNFFPRKPKWDKNQITYRIIGYTPDLDPETVDDAFARAFQVWSDVTPLRFSRIHDGEADIMINFGRWEHGDGYPFDGKDGLLAHAFAPGTGVGGDSHFDDDELWTLGEGQVVRVKYGNADGEYCKFPFLFNGKEYNSCTDTGRSDGFLWCSTTYNFEKDGKYGFCPHEALFTMGGNAEGQPCKFPFRFQGTSYDSCTTEGRTDGYRWCGTTEDYDRDKKYGFCPETAMSTVGGNSEGAPCVFPFTFLGNKYESCTSAGRSDGKMWCATTANYDDDRKWGFCPDQGYSLFLVAAHEFGHAMGLEHSQDPGALMAPIYTYTKNFRLSQDDIKGIQELYGASPDIDLGTGPTPTLGPVTPEICKQDIVFDGIAQIRGEIFFFKDRFIWRTVTPRDKPMGPLLVATFWPELPEKIDAVYEAPQEEKAVFFAGNEYWIYSASTLERGYPKPLTSLGLPPDVQRVDAAFNWSKNKKTYIFAGDKFWRYNEVKKKMDPGFPKLIADAWNAIPDNLDAVVDLQGGGHSYFFKGAYYLKLENQSLKSVKFGSIKSDWLGC
# B2: ST14/Matriptase (protein)
# chain: GSDEKDCDCGLRSFTRQARVVGGTDADEGEWPWQVSLHALGQGHICGASLISPNWLVSAAHCYIDDRGFRYSDPTQWTAFLGLHDQSQRSAPGVQERRLKRIISHPFFNDFTFDYDIALLELEKPAEYSSMVRPICLPDASHVFPAGKAIWVTGWGHTQYGGTGALILQKGEIRVINQTTCENLLPQQITPRMMCVGFLSGGVDSCQGDSGGPLSSVEADGRIFQAGVVSWGDGCAQRNKPGVYTRLPLFRDWIKENTGV
# B3: MMP7 (protein)
# chain: YSLFPNSPKWTSKVVTYRIVSYTRDLPHITVDRLVSKALNMWGKEIPLHFRKVVWGTADIMIGFARGAHGDSYPFDGPGNTLAHAFAPGTGLGGDAHFDEDERWTDGSSLGINFLYAATHELGHSLGMGHSSDPNAVMYPTYGNGDPQNFKLSQDDIKGIQKLYGKRSNSRKK
# B4: Legumain (protein)
# chain: VPIDDPEDGGKHWVVIVAGSNGWYNYRHQADACHAYQIIHRNGIPDEQIVVMMYDDIAYSEDNPTPGIVINRPNGTDVYQGVPKDYTGEDVTPQNFLAVLRGDAEAVKGIGSGKVLKSGPQDHVFIYFTDHGSTGILVFPNEDLHVKDLNETIHYMYKHKMYRKMVFYIEACESGSMMNHLPDNINVYATTAANPRESSYACYYDEKRSTYLGDWYSVNWMEDSDVEDLTKETLHKQYHLVKSHTNTSHVMQYGNKTISTMKVMQFQGMKRKASSPVPLPPVTHLDLTPSPDVPLTIMKRKLMNTN
Protein,unmasking (protease cleavage) rate (818-P1),unmasking (protease cleavage) rate (818-C1 MB),unmasking (protease cleavage) rate (818-C1MA)
B1,MMP2: 818-P1>818-C1MA>818-C1 MB,MMP2: 818-P1>818-C1MA>818-C1 MB,MMP2: 818-P1>818-C1MA>818-C1 MB
B2,ST14 unmaking was characterized by 818-C1MA>818-P1>818-C1 MB,ST14 unmaking was characterized by 818-C1MA>818-P1>818-C1 MB,ST14 unmaking was characterized by 818-C1MA>818-P1>818-C1 MB
B3,MMP1: 818-P1>818-C1MA=818-C1 MB,MMP1: 818-P1>818-C1MA=818-C1 MB,MMP1: 818-P1>818-C1MA=818-C1 MB
B4,Legumain demonstrated minimal unmasking differences,Legumain demonstrated minimal unmasking differences,Legumain demonstrated minimal unmasking differences
